Results on two molecules are retold here after PMC5595714, “Activation of secondary cell wall biosynthesis by miR319‐targeted TCP4 transcription factor”.

For data set [1], the target named is T1, rTCP4-HIS (UniProt Q8LPR5 1-420).
T1 sequence: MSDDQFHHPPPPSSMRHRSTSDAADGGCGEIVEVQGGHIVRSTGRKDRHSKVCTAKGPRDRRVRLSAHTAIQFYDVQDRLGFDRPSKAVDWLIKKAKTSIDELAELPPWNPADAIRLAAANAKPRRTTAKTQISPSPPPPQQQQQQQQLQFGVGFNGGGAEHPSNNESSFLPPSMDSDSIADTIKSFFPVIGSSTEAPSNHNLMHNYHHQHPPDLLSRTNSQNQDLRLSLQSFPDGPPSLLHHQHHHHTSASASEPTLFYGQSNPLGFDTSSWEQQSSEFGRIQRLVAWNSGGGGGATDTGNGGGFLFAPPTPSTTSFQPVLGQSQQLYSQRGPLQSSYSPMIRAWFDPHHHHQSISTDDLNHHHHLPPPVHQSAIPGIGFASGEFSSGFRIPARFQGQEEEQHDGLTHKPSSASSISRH
Briefly: EMSA; 20 mM HEPES-KOH pH 7.8, 100 mM KCl, 1 mM EDTA, 0.1% BSA, 10 ng herring sperm DNA, 10% glycerol; 100 fmol probe, 1 ug protein, 20 uL, 30 min, room temperature. Conditions: protein: recombinant; tags: His (pET32a fusion); chain copies: 2; label: biotin 3'; blunt. For orientation: A gel shift assay detects complexes by their altered migration in electrophoresis.

The target in data set [2] is T2, TCP4-HIS (UniProt Q8LPR5 1-420).
T2 sequence: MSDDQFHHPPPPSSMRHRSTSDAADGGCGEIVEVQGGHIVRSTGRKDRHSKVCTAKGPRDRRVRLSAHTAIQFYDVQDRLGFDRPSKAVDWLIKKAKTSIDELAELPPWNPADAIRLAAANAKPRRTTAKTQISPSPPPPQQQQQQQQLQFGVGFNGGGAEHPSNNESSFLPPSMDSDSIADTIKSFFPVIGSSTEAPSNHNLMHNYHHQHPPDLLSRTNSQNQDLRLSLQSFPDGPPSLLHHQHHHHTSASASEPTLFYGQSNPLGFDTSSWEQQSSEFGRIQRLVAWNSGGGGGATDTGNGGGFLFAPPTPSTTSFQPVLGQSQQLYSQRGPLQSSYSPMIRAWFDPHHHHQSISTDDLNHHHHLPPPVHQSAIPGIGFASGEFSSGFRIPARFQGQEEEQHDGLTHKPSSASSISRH
The description is as above. Conditions: protein: recombinant; tags: His (pET32a fusion); chain copies: 2; label: biotin 3'; blunt.

Data set [3] deals with T2, TCP4-HIS. The data set can be described thus: competition; 10x and 50x unlabeled probe against N1, dose-dependent; 20 mM HEPES-KOH pH 7.8, 100 mM KCl, 1 mM EDTA, 0.1% BSA, 10 ng herring sperm DNA, 10% glycerol; 100 fmol probe, 1 ug protein, 20 uL, 30 min, room temperature. Conditions: protein: recombinant; tags: His (pET32a fusion); chain copies: 2; blunt.

B1: VND7 promoter probe (dsDNA)
DNA 1: ATTGTTGGGTGGTCCCATAAAAAT
DNA 2: ATTTTTATGGGACCACCCAACAAT
Take B1: the binding result in data set [1] and in data set [2] was “binds” throughout.

B2: VND7 promoter cold probe (dsDNA)
DNA 1: ATTGTTGGGTGGTCCCATAAAAAT
DNA 2: ATTTTTATGGGACCACCCAACAAT
With B2, the binding result in data set [3] is “binds”.
